Data published in the DeepSol protein solubility set.

test: soluble on expression in E. coli; label from the status in PepcDB or PDB records

Sequence	soluble on expression in E. coli
MGSDKIHHHHHHMSIPSTLLGLSGGQFNEIDWSNCAIVMIDFQNEYVDGAMPLGDAGNKATANARLLLYKARNKNIPIFHVAHHGQDNDKIFNPLSSKVDIIDSLQPLDDEKTIIKMHPNAFYDTELQALITSAGKQQIIFAGFMSHMCVSSSVRAAFDLGFESFVCHDACATRDLPSVAGQVITASTVHDSAMAALQDRFAALVATDKLTNS	not soluble
MEWIKQILAKHMKEDGTLDMEAANKEIDKEFPVNAVPKDQYNNLSSQLAEANKTLKSLEAKTKDNPDVQKELADLKEKADALEKENKDLKINSQVSAALQSAGAKDIDYALFKLGELELDKDGNVKDLESKVKDLKASIPDYFEKKDTLDDKSKKKTENKAGYQPIDNKLPKGKEPNEKDPFEAILSKYE	not soluble
MGSDKIHHHHHHMTQLSNKTKDSCNWDSIVIGSGLGGLVTASQLASKGAKVLVLEQYKIPGGSGGSFKRKGFTFDVGASMIFGFGNKGYTNLLTRALKDVGQKCETIPDPTQLAYHLPNQLEISVDRDYQKFITKLINLFPHEEKGIKHFYETCWDVFNCLDSMPLLSIEDPAYLMKVFFKSPLSCLGLARWLPVNAGDVAMRYIKDPDLLRFIDIECFCWSVMPANLTPMINAGMVFSDRHYGGINYPKGGVGVIAEKLVKGIKNLGGEIRYKSRVKKIIFEKGNAIGVSLENDEEIFSKTVVSNATRWDTFGGQGIKSPLVATENKPTSEKKWENRYIPSPSFLSLHLGVNVDSIPANTHCHHLLLDKWEEMDKEQGVTFVSIPTLLDPTLAPSGSHIVHAFTPSSIDNWDGLSNKEYLAKKKEDGDKLISKLERLFPNLSQNILHKEIGSPRTHKRFLARNKGSYGPIPSMRLPGLLPMPFNTTKINGLYCVGDSCFPGQGLNAVAFSGYACAHKIGTKLGMNKWELPE	not soluble
MGSDKIHHHHHHMSIFFKPPIDIEILFDNEESRKHVDIATRSSNSSYKSMKESLPVYEDGESLGGIVTLRVRDSKKVDHLGIKVSVIGSIDMLKSHGSGNSSSKKVTSSTSSSSSNGSVDVRKNSVDQFLCQSYDLCPAGELQHSQSFPFLFRDLSKRYESYKGKNVDVAYYVKVTVMRKSTDISKIKRFWVYLYNSVTTAPNTLSANETKATTNDIAGGNYAADNASDNTQTKSTQGEAADVNQVLPISHSNNEPKPVRLDIGIENCLHIEFEYAKSQYSLKEVIVGRIYFLLTRLRIKHMELSLITRESSGLQTSNVMTDSTAIRYEIMDGSSVKGETIPIRLFLSGYDLTPNMSCNYFNVKNYLSLVIIDEDGRRYFKQSEITLYRTR	not soluble
MTMQLIGKKSFPRKANRGAKTRNPSIYWNYRQFICSSSSGYPIPMNFSDEFDFDEDRVYEMLCSDDENTTDYSDEIIAIIDANMRSLWIFQL	not soluble
MGHHHHHHSHLSPDRRASLLTSLMLVKRDYRYDRVLFWGRILGLVADYYIAQGLSEDQLAPRKTLYSLNCTEWSLLPPATEEMVAQSSVVKGRFMGDPSYEYEHTELQKVNEGEKVFEEEIVVQIKEETRLVSVIDQIDKAVAIIPRGALFKTPFGPTHVNRTFEGLSLSEAKKLSSYFHFREPVELKNKTLLEKADLDPSLDFMDSLEHDIPKGSWSIQMERGNALVVLRSLLWPGLTFYHAPRTKNYGYVYVGTGEKNMDLPFML	not soluble
QNSWDSLQPDREQVIASLNVVELLKRHHYNKPPLNDERSAKIYDSYLKMLDPARMYFTAGDIAEFDRWRNRFDDFLKSGDLDPGFVIYKRHLDRLKGRLDYALAMLDKGVDKIDFSVDESLLIDREKAPWAKDTAELDDLWRKKVKDEVLRLKITGKDDKAIQEQLTKRYKNQLSRLKQTRSEDIFQAYINAFAQSYDPHTQYLSPDNAENFDINMSLSLEGIGAVLQSDNDYVKVVRLVPAGPAAKSKQIATSDKIIGVAQGKGEMVDVVGWRLDEVVKLIRGPKGSQVRLEVIPASNAPNDQTSKIVAITREAVKLEDQAAKKSIIKVDHEGRSYKLGVIDLPAFYLDFKAYRAGDPNYKSTTRDVKKLVAELQKDKVDGIVLDLRNNGGGSLQEATELTGLFIDQGPTVLVRNSDGRVDVLNDDEGKAFYTGPLAVLVNRLSASASEIFAGAMQDYHRALILGGQTFGKGTVQTIQPLNHGELKLTLAKFYRVSGQSTQHQGVIPDISYPSIVDDKEIGESALPDSMPWDTIRPVVKDEANPFKPFLAQLKAQHDARTENNADFVYARERLALAQELMKEKTVSLNEAKRRAQQTSIENRQLAMENALRKSKGQEPLKELKREDENALPEEDDKTKPQDDAYLTESGHILLDYLNLNSAVAK	not soluble
MGSDKIHHHHHHMTPAQLKDELIAYSKTIGIDKIGFASADPFLTLKERLQTQQALGYQSGFEEPDIDKRVYPEKILPKARSIISIALAYPSKMKNPPKSKKGERRGVFCRASWGKDYHDILRDRLKKLEDFLLERVPDMKVLSMVDTGALSDRAVAERAGIGWSGKNCGVITPEFGSYVYLGDLVTTIPFPPDIPLTDQCGTCNKCVDACPTGALIQGGQLDSQKCIAFLTQTKGFLPEKYRKKLGNRLYGCDTCQQVCPANKGKNFHFHEEMEPDPEIAKPKLIPLLTMSNREFKEKFGHVSGSWRGKKPIQRNAILALAHFKEEAALPILADLLRQDPRPVIRGTAGWALGKIGGPEVETWLKDALKREKDEDVRAEISRGLEILAYGDSGNGKETEDSIR	not soluble
MSLNQIDRLLTIMQRLRDPENGCPWDKEQTFATIAPYTLEETYEVLDAIAREDFDDLRGELGDLLFQVVFYAQMAQEEGRFDFNDICAAISDKLERRHPHVFADSSAENSSEVLARWEQIKTEERAQKAQHSALDDIPRSLPALMRAQKIQKRCANVGFDWTTLGPVVDKVYEEIDEVMYEARQAVVDQAKLEEEMGDLLFATVNLARHLGTKAEIALQKANEKFERRFREVERIVAARGLEMTGVDLETMEEVWQQVKRQEIDLEGGSHHHHHH	soluble
MGSDKIHHHHHHMADAPIDIFQSILSRKSIRAFTDQPVTQETIREILKLAARAPSGTNLQPWQVIVLTGKILQKVGQELSQLVLSGIKGEREYHYYPRQWREPYLSRRRKVGLDLYKSLGIQKGDQEKMLHQKAKNFLFYGAPVGLLFTIDHDMEMGSWLDLGMFMQTIMLAARGFGLDTCAQAAFADYHKQIRSLLSVPSDRHIICGMALGYRDMNAPENNFETEREPIDNFVHFIKSYP	not soluble
MNAACPDCGLKFQCLCSAVPSFHAPFQLSLLTHDNEWQRETNTGRWLVKSMAECQAYTWSRVAANTELQARLTQPNARSFLVYPSEESVELTDALRSLREDEIAHFIVLDATWQEARKMERKSPWLADVPRVHLTTDHVSAYRLRRNQQPGNLCTLEVGLMLLRHFNAEASAEALEQFYHYSMNAFKADKSGHRWIERLEHHHHHH	not soluble
MTRHSAVRQAIIAALKKTDDGSTTFFDGRPVVVEEDELPAVAVYLSDAQYTGPEVDGDIWSAVLHVEVFLKATAPDSALDEQMENRVYPALGSVAGLGDIIRTMSAQGYNYQRDDEMAMWGSADLSYDITYSM	not soluble
MTQAVMLQGTASDVGKSVLAAGLCRIFYQDGLRTAPFKSQNMALNSGITPDGKEMGRAQIFQAEAAGITPDVRMNPVLLKPTSDRQAQVVLMGKVATNMDAVSYHDYKPRLREQILAVYNSLAQEYDVIVLEGAGSPAEINLRDRDIVNMGMAEMAQCPVILVADIDRGGVFAAIYGTLALLHKQERDRVKGVIINKFRGDVALLYSGIEQIESLTGVPVLGVMPWLDVDLEDEDGVALQNDKYRGNAPRDITIAIVQLPHISNFTDFNALAAQPDVRIRYIRRPEALTDVDLVILPGSKNTLSDLAWLRESGMADAVLQTHRQGVPVMGICGGYQMLGDTIVDEVESGLGTQPGLGLLNTITRFAQDKTTTQVNATMSGELPGWLAAAAGLPVRGYEIHMGETVLQEGCCTAMTLQKNGCSVADGAVTADGLAFGTYLHGLFDSDAFTRAVVNGLRARKGLAPWETTFCYADHKARQFDLLAEAMRQHIDIDKIYTIMQQHQEPV	not soluble
MGSDKIHHHHHHMKLETIDYRAQDSAQRFVESLRETGFGVLSNHPIDKALVDTIYEEWQAFFNSDEKHDYLFKPETHDGFFPADVSETAKGHTVKDIKEYYHVYPWGRIPDSLRENILRYYQEANALAEELLGWVEAHTPAEVAVNYSIALPKMIENSHKTLLRILHYPPMSGDEELGAIRAAAHEDINLLTVLPAANEPGLQVKAKSGEWLDVPSDFGNLIINIGDMLQEASGGYFPSTTHRVVNPEGADKTRSRISLPLFLHPKPEVVLSERYTADSYLMERLRELGVI	not soluble
MLARLVLGTSGRAALGSVEPALGGLKSIWRCSQAFCSTPKGVTYRELKSLLNSKDIMLIDVRNTLEILEQGKIPGSINIPLDEVGEALQMNPVDFKEKYCQVKPSKSDRLVFSCLAGVRSKKAMDTAISLGFNSAQHYAGGWKEWVTYEISEEKQES	soluble
MKFTEGKVKVVANDVKNLTQALEGYIQKAFFEGKDICASGGLVLKTTNKLAQKLSELKEILPQVKVISDEVKAKAEEIIKKAEETLQKGLEIKKRVKEFEAATNVYKKNPSEENKKRVETALNNLKYPEGAKLTLEDYVKNCNPYKKYLQKRVEQKA	not soluble
MITQRQNAILNLIVEMFTRTHEPVCSKALQDSIDSSSATIRNDMAKLEKMGYLEKAHISSGRMPSRAGFQYFVANSLNLDTIDEQDVYQVVKAFDFEAFKLEDILDAAAKLLAEMTGCTAVIQDVEPTKQRLTGFEIVQLSNHDALAVLTLDESKPVTVQFAIPKNFLSSDLEIFHKLVQGRFLGNTVLDIHYRLRTETPQIVQKYFKITDNVLDLFDYIFSHLFKELIFIEGKVASLAYADLKTYQFLDNPQHVALALRSAISDDEVTKISVAESTEEALENVTVMSHKFLIPYRGTALMHVIGPIEMDYRRMVSLVNVISRVLVMKLTDYYRYLNSNHYEVFLSRNVLKNIERGECLD	not soluble
MAHHHHHHMESIKAKCTAKNLVNEKPAQKTPLSISISEKHKAQLREAFDLFDSEGTGRIKALDVKVALCALGYDVSKEELTQLLKQVGGSIVGGVDFNEFYCVLLAKMMQRESRSEAIRAFRLIDVAEKGYISVDDLRPIADSLEMDLTDDELAEMVLFAHPPVGFGKNENDIKEPLTVSEEEFLKLMGRAHVY	soluble
GPGSMNNDKSEFYITGMTAGKLPMNNQQMVGYQRRMKIQVNKLMTEKQMTRMDAAAQGNTNTFEPFARERRRATAHVEQYPNIGHSPSGDDATTPKDVIPMLLIKKQLREFGRGRLRMPFTDTLSANVEKFTTPVGQTQVTGQPEILVTEKKLSAEGI	not soluble
QPLGGESICSARAPAKYSITFTGKWSQTAFPKQYPLFRPPAQWSSLLGAAHSSDYSMWRKNQYVSNGLRDFAERGEAWALMKEIEAAGEALQSVHEVFSAPAVPSGTGQTSAELEVQRRHSLVSFVVRIVPSPDWFVGVDSLDLCDGDRWREQAALDLYPYDAGTDSGFTFSSPNFATIPQDTVTEITSSSPSHPANSFYYPRLKALPPIARVTLLRLRQSPR	soluble
MGSDKIHHHHHHMKRMKGIVYGGLLSVVFVMSGCSGSQKEGRDSKEIPVEIVKVAKTVPADTRNYVGTVEEVVSSSISFQVMGNVERVLVGEGQKVREGQLLAVLDKATLENAYNASAASLRQAEDAYARMRTLHENKSLPDMKWVEVESKLEQARSMERISRKNLEDRNLYAPFGGVIGKRMVEAGENVQPGQPVFSLLRIETVNVKIAVPENEVATLGDQAAMIKVAALGGQCFEGKVTEKGIVANPISHTYEAKIRLENPSGALLPGMVCDVRLSGEESVPAITLPNNAVLIANDGGRFVWKVVDGKAKATPVRTGDLTEQGLFILEGLNEGDIVVIGGYQKISEGMRVRAL	not soluble
